Results taken from patent publication US20250049930A1 (CEDARS SINAI MEDICAL CENTER, published 2025).
Primed or numbered codes have the meaning given here. PEG4′ = polyethylene glycol linker with 4 oxyethylene units

What was measured:
[1] = molecular target: T1, cereblon (E3 ubiquitin ligase); test: SPR imaging (PlexArray HT), cereblon printed on chip; ternary complex of cereblon, FoxP3 and P-FoxP3 (recombinant FoxP3 present)
T1 chain: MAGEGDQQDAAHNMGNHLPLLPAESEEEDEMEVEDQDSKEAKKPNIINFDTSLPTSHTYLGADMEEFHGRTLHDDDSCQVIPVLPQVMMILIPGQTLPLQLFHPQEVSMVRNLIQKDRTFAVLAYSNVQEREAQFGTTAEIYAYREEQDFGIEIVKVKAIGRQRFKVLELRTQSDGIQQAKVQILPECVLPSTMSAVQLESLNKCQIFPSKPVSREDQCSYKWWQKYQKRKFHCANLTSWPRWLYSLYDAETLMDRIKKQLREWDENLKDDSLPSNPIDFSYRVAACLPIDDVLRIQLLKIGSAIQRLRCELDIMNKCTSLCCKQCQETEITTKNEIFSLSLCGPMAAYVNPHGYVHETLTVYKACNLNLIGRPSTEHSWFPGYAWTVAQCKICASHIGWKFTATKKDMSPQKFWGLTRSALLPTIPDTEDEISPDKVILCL

[2] = molecular target: T1, cereblon (E3 ubiquitin ligase); test: SPR imaging (PlexArray HT), cereblon printed on chip; binary complex of cereblon and PF

B1: Proteolysis-targeting chimera (PROTAC) targeting FoxP3 (Pomalidomide-PEG4-RDFQSFRKMWPFFAM) (peptide)
peptide: {pomalidomide-PEG4′}-RDFQSFRKMWPFFAM-OH
notes: Conjugate of the P60 peptide with the small molecule pomalidomide; also called P-FoxP3; PROTAC for FoxP3
Binder B1 has a Kd [1] of 434 nM and a Kd [2] of 987 nM.
